Assay results as given in paper PMC10562255, “APOBEC3B regulates R-loops and promotes transcription-associated mutagenesis in cancer”.

Target: APOBEC3B (A3B) WT (human, UniProt Q9UH17 1-382)
Assay: EMSA with unlabeled self-competitor; binds ssDNA and ssRNA equally strongly; Competition EMSA: 25 mM HEPES pH 7.4, 50 mM NaCl, 0.4 U/ul RNase inhibitor, room temperature, 5 min binding plus 10 min with competitor; R-loop substrate EMSA:
Settings: protein: recombinant; tags: C-terminal mycHis; label: 5' IRDye800CW

Sequence of APOBEC3B (A3B) WT (Q9UH17 whole entry): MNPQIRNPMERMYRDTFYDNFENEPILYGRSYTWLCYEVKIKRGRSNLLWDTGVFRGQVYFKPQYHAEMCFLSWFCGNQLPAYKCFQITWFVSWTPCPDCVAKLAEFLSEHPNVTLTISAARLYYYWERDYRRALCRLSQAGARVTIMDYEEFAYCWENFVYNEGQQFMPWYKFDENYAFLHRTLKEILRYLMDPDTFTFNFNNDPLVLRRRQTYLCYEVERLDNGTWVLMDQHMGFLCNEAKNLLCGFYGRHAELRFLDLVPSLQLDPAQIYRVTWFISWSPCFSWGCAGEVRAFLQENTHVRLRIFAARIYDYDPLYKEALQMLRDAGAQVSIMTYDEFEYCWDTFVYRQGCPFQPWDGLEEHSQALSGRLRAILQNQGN

| Binder | binding result |
| --- | --- |
| AUUAGUCAUAUGGAU (ssRNA) [short 15-mer ssRNA (A3B RNA EMSA)] | binds |
| ATTAGTCATATGGAT (ssDNA) [short 15-mer ssDNA (A3B DNA EMSA)] | binds |
